The values that follow come from patent publication US11697680B2, “Anti-GP73 antibodies and immunoconjugates” (CUREAB GMBH, priority 2016, dated 2023).

“Also recorded” adds a separate entry of the source.

For test [1], the system named is HEK293 GP73-His full length cells. The experiment in a line: Furin blockage experiment: sGP73 in cell culture supernatant (Up-converting Phosphor Technology). In kind it is cell-based, human. The note with it: 31.3 ug/ml or 62.5 ug/ml; after 96 hours. How it is done: FIG. 23 Measurement of sGP73 in cell culture supernatant after treatment of 293HEK GP73-His full length cells with Bevacizumab or G2-2opti (IgG1). Furin cleavage is a prerequisite for sGP73 to appear in the supernatant.
HEK293 GP73-His full length cells were seeded in 96 well plates 1500 cells per well and cultured overnight. Next day, medium was changed and cells were treated with Bevacizumab 31.3 ug/ml, Bevacizumab 62.5 ug/ml, G2-2opti(IgG1) 31.3 ug/ml or G2-2opti (IgG1) 62.5 ug/ml. To examine furin cleavage inhibition the respective antibody concentrations were chosen in a range that had no impact on cell proliferation. After 96 hours the supernatants were collected for measurement of sGP73 exploiting the Up-converting Phosphor Technology (UCP) and the remaining cell layer was used in a proliferation assay with PrestoBlue reagent (Thermofisher) described in Example 8.
For sGP73 detection each supernatant was diluted 1:1 in Hotgen dilution buffer containing an anti GP73 UCP labelled antibody. […] GP73 concentrations were deduced from differences of light emission at the C and T line measured by inserting the test cassette into the Hotgen Up-converting Phosphor Technology (UCP) Analyser.

Test [2] concerns HuH7 (human hepatocellular carcinoma). The experiment in a line: Cell viability / proliferation with PrestoBlue reagent. The note with it: 0.125 mg/ml to 2 mg/ml, after 72 hrs. In kind it is cell-based. The method, then:
FIG. 13A Proliferation of HuH7 cells (human hepatocellular carcinoma) after treatment with different antibodies. HuH7 cells were treated with G2-2, G2-2 plus Cetuximab, mG2-2, mG2-2 plus Cetuximab, Cetuximab or control antibody each in increasing concentrations from 0.125 mg/ml to 2 mg/ml. Proliferating cells were measured after 72 hrs. […] This effect was independent of the Fc part i.e. human IgG1 in G2-2 or murin IgG2a in mG2-2 as described in Example 8.
FIG. 13B Proliferation of HuH7 cells (human hepatocellular carcinoma), 4T1 cells (murin breast carcinoma) and CaCo2 cells (human colorectal carcinoma) after treatment with different antibodies. The three cell lines were treated with G2-1, G2-1 plus Cetuximab, Cetuximab, Bevacizumab or Bevacizumab plus Cetuximab 2 mg/ml total. Proliferating cells were measured after 72 hrs.
Cells from the cell lines HuH7 (human hepatocellular carcinoma), 4T1 (murin breast carcinoma) and CaCo2 (human colorectal carcinoma) were cultured under standard conditions in Dulbecco's modified Eagle Medium (DMEM) supplemented with 10% fetal calf serum (FCS) at 37° C. with 5% CO2. […] Fluorescence was read at 615 nm to quantify cell viability. […]
To test the effect of G2-1 on different cell lines, HuH7, 4T1 and CaCo2 cells were transferred to 96 well plates. […] Cell viability was quantified after 72 hours using PrestoBlue reagent and measuring the fluorescence at 615 nm.

Another test deals with HuH7 cells. The test is described as follows: Internalization of pHrodo Green labeled antibodies after pre-incubation with conditioned media containing soluble GP73. The note with it: 10 ug/ml pHrodo Green labeled antibody pre-incubated over night, 24 h at 37° C. In kind it is cell-based, human. The method, then: Antibody internalization was measured by FACS using the pH-sensitive dye pHrodo Green coupled to each antibody. […] The internalization of G2-2 that binds to rGP73 is not altered as described in Example 6.
Labeled antibodies were purified by size exclusion (40K MWCO). A non binding Isotype Antibody that was not labeled with pHrodo® Green STP Ester (Iso.) was used as control for background fluorescence. 10 ug/ml of each antibody was pre-incubated over night at 4° C. with either fresh culture media or conditioned media. As conditioned media served either supernatant from HEK 293 or HEK 293 GP73-myc cells cultured for 72 hours, that was dialyzed (10 k MWCO) against 1 L fresh media each. To confirm the presence of secreted soluble GP73 after dialysis supernatants were analysed by Western Blot using an anti-myc antibody. 300 ul/well of each pre-incubated antibody was given to 0.6×10^6HuH7 cells growing in 24 well plates for 24 h at 37° C. and 5% CO2. Cells were washed and analysed by FACS.

Turning to “Bevacizumab: the isotype control [reference compound]”, the “sGP73 in cell culture supernatant” value in test [1] is recorded as “no influence on sGP73 levels”.

B1: mG2-2: G2-2 variable regions with murine IgG2a heavy chain and human Igk light chain constant regions (antibody)
heavy: EVQLLQSGGGVVQPGRSLRLSCAASGFTFSSYGMSWVRQAPGKGLEWVAVISYDGSNKYYADSVKGRFTISRDNSKNTLYLQMNSLRAEDTAVYYCAREGSAGMDVWGQGTTVTVSSASTTAPSVYPLAPVCGDTTGSSVTLGCLVKGYFPEPVTLTWNSGSLSSGVHTFPAVLQSDLYTLSSSVTVTSSTWPSQSITCNVAHPASSTKVDKKIEPRGPTIKPCPPCKCPAPNLLGGPSVFIFPPKIKDVLMISLSPIVTCVVVDVSEDDPDVQISWFVNNVEVHTAQTQTHREDYNSTLRVVSALPIQHQDWMSGKEFKCKVNNKDLPAPIERTISKPKGSVRAPQVYVLPPPEEEMTKKQVTLTCMVTDFMPEDIYVEWTNNGKTELNYKNTEPVLDSDGSYFMYSKLRVEKKNWVERNSYSCSVVHEGLHNHHTTKSFSRTPGK
light: DIQMTQPSSLSASPGASASLTCTLRSDISVGFHRIYWYQQKPGSPPQYLLRYKSDSDKQQGSGVPSRFSGSKDASANAGILLISGLQSDDEADYYCVIWHTSGVVFGGGTKVEIKRTVAAPSVFIFPPSDEQLKSGTASVVCLLNNFYPREAKVQWKVDNALQSGNSQESVTEQDSKDSTYSLSSTLTLSKADYEKHKVYACEVTHQGLSSPVTKSFNRGEC
As for B1, the “cell proliferation / cell viability” value in test [2] is given as “reduced depending on antibody concentration”.

B2: G2-4: hybridoma antibody against peptide AA 347-366 of human GP73 (sGP73); VH/VL SEQ ID NOs: 18 and 19 (antibody, V domains shown)
VH: QVQLEESGGGLVQPGGSLRLSCATSGFTFTDYYMSWVRQPPGKALEWLGFIRNKAKGYTTEYSASVKGRFTISRDNSQSILYLQMNTLRAEDSATYYCARDPSTNYWYFDVWGAGTTVTVSS
VL: DIVLTQSPSSLAVSAGEKVTMTCKSSQSLLNSRTRKNYLAWYQQKPGQSPKLLIYWASTRESGVPDRFTGSGSGTDFTLTISSVQAEDLAVYYCKQSYNLYTFGGGTKLEIKR
modifications: G2-4 heavy chain variable region (VH); G2-4 light chain variable region (VL)
For B2, in the test with HuH7 cells, the “effect of conditioned media containing soluble GP73 on antibody internalization / cell surface binding” value is on record as “reduces antibody binding; also recorded: reduces internalization”.

B3: G2-2opti (IgG1): G2-2 optimized for expression in mammalian cells by directed mutagenesis of framework; CDRs untouched (antibody, V domains shown)
VH: QVQLVQSGGGVVQPGRSLRLSCAASGFTFSSYGMHWVRQAPGKGLEWVAVISYDGSNKYYADSVKGRFTISRDNSKNTLYLQMNSLRAEDTAVYYCAREGSAGMDVWGQGTTVTVSS
VL: QAVLTQPSSLSASPGASASLTCTLRSDISVGFHRIYWYQQKPGSPPQYLLRYKSDSDKQQGSGVPSRFSGSKDASANAGILLISGLQSDDEADYYCVIWHTSGVVFGGGTKLTVL
Take B3: the “sGP73 in cell culture supernatant” value in test [1] was “decreases sGP73 secretion into supernatant; also recorded: reduce GP73 concentration”.
